Measurements taken from the RNAGym collection of RNA variant scans (doi:10.1073/pnas.2313332121).

B1: TPR t1 (parent)
chain: GACCAAUCUGCCCUCAGAGCUCGAGAACAUCUUCGGAUGCAGAGGAGGCAGGCUUCGGUGGCGCGAUAGCGCCAACGUCCUCAACCUCCAAUGCAUCCCACCACAUGAUGAUGCCUGAAGAGCCUUGGUUUUUUG

Variants of: B1
Experiment: polymerase ribozyme fitness, log enrichment relative to wild type (log ratio); higher = more active; in vitro selection for triplet polymerase activity
Summary of the method: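 To select mutant libraries of each subunit of a heterodimeric triplet polymerase ribozyme, built by PCR and transcribed, each was annealed with a biotinylated primer, partner subunit and triplets, then incubated frozen at −7 °C. Extended constructs were gel-excised, captured on streptavidin beads and amplified by RT-PCR, in one round carried out in triplicate. Illumina sequencing of input and output libraries kept genotypes with ≥10 input reads and ≥1 read per output. Fitness is the base-2 logarithm of genotype enrichment relative to wild-type enrichment, from inverse-variance-weighted replicate averages.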

Row | Variant | polymerase ribozyme fitness (log ratio)
1 | GACCAAUCUCCCCUCAGAGCUCGAGAACAUCUUCGGAUGCAGAGGAGGCAGGCUUCGGUGGCACGAUAGCGCCAACGUCUUCAACCUCCAAUGCAUCCCACCACAUGAUGAUGCCUGAAGAGCCUUGGUUUUUUG | -3.07
2 | GACCAAUUUGUCCUCAGAGCUCGAGAACAUCUUCGGAGGCAGGGGAGGCAGGCUUCGGUGGCGCGAUAGCGCCAACGUCCUCAACCUCCAAUGCAUCCCACCAUAUGAUGAUGCCUGAAGAGCCUUGGUUUUUUG | -2.94
3 | GACCAAUCUGCCCUCAGAGCUCGAGAACAUCUUCGGAUGCAGAGGUGACAGCCUUCGGUGUCGCGAUAGCGCCAACGUCCUCAACCUCCAAUGCAUCCCACCACAUGAUGAUGCCUGAAAAGCCUUGGUUUUUUG | -0.93
4 | GACCAAUCUGCCCUCAGAGCUCGAGUACAUCUUCGGAUGCAGAGGAGGCAGGCUUGGGUGGCGCGAUAUCGCCAACGUCCUCAACCUCCAAUGCAUCCCACCACAUGAUGAUGCCUGAAGAGCCUUGGUUUUUUG | -2.73
5 | GACCAAUCUGCCCUUAGAGCUCGAGAACAUCUUCGGAUGCAGAGGAGGCAGGCUUCGGUGGCGCGAUAGCGCCAACGUCCUCAUCCACCAAUGCAUCCCACCACGUGAUGAUUCCUGAAGAGCCUUGGUUUUUUG | -5.89
6 | GACCAAUCUGCCCUCAGAGCUCGAGGACAUCUUCGGAUGCAGAGGAGGUAGGCUUCGGUGGCGCGAUAGCGCAAACGUCCUCAACCUCCAAUGCAUCCCACCACAUGAUGAUGCCUGAAGAGCCUUGGUUUUUUG | -2.93
7 | GACCAAUCUGCCCUCAGAGCUCGAGAACAUCUUCGGAUCCAGAGGAGGCAGGCUUCGGUGGUACGAUAGCGCCAACGUCCUCAACCUCCAAUGCAUCCCACCACAUGAUGAUGCCUGAAGAGCCUUGGUUUUUUG | -3.77
8 | GACCAAUCUGCCCUCAGCGCUUGAGAACAUCUUCGGAUGUAGAGGAGGCAGGCUUCGGUGGCGCGAUAGCUCCAACGUCCUCAACCUCCAAUGCAUCCCACCACAUGAUGAUGCCUGUAGAGCCUUGGUUUUUUG | -6.12
9 | GACCAAUCUGCUCUCAGAGCUCGAGAACAUCUUCGGAUGCUGAGGAGGCAGGCUUCGGUGGCGCGAUAGCGGCAACGUCCUCAACCUCCAAUGCAUCCCACCACAUGAUGAUGCCUGAAGAGCCUUGGUUUUUUG | -1.1
10 | GACCAAUCUGCCCUCAGAGCUCGAGAAGAUCUUCGGAUGCAGAGGAGGCAGGCUUCGGUGGCGCGAUAGCGCCAACGUCCUCAACCUCCAAUGCAUCCCACCACAUGAUGAUGCCUGAAGAGCGUUGGUUUUUUG | -0.979
11 | GACCAAUCUGCCCUCAGAGCUCGAGAACAUCUUCGGAUGCAGAGGAGGUAGGCUUCGGUGGCGCGAUAGCGCCAACGUCCUCAACCUCCAAUACAUUCCACCACAUGAUGAUGCCCGAAGAGCCUUGGUUUUUUG | -3.84
12 | GACCAAUCUGCCCUCAGAGCACGAGAACAUCUUCGGAUGCAGAGGAGGCAGGUUUCGGUGGCGCGAUAGCGCCCACGUCCUCAACCUCCAAUGCAUCCCACCACAUGAUGAUGCCUGAAGAGCCUUGGUUUUUUG | -0.636
13 | GACCAAUCUGUCCUCAGAGCUCGAGAACAUCUUCGGAUGCAGAGGAGGCAGGCUUCGGUGGCGAGAUAGCGCCAACGUCCUCAACCUCCAAUGCAUCCCACCACAUGAUGAUGCCUGAAGAGCCUUGGUUUUUUG | -4.93
14 | GACCAAUCUGCCCUCAGAGCUCGAGAACAUCUUCGGAUGCAGAGGAGGCAGGCUUCGGUUGCGCGAUAGCGCCAACGUCCUCAACCUCCAAUGCAUCCCACCACAUGAUGUUGCCUGAAGAGCCUUGGUUUUUUG | -2.87
15 | GACCAAUCUGCCCUCAGAGCUCGAGAACAUCUUCGGAUGCAGAGGAGGCAGGCUUCGGUGACGCGAUAGCGCCAACGUCCUCAACCUCCAAUGCAUCCCACCACAUGAUGAUGCCUGAAGAGCUUUGGUUUUUUG | 1.51
16 | GACCCAUCUGCCCUCAGAGCUCGAGAACAUCUUCGGAUGCAGAGGAGGCAGGCUUCGGUAACGCGAUAGCGCCAACGUCCUCAACCUCCAAUGCAUCCCACCACAUGAUGAUGACUGAAGAGCCUUGGUUUUUUG | -4.47
17 | GACCAAUCUGCCCUCAGAGCUCGAGAACAUCUUCGGAUGCAGAGGAGGCAGGCUUCGGUGGCGCGAUAGCGCCAACGUACUCAACCUCCAAUGCAUCCCACCACAUGAUGAUGCCUGAGGAGCCUUGGUUUUUUG | -0.23
18 | GACCAAUCUGUCCUCAGAGCUCGAGAACAUCUUCGGAUGCAGAGGAGGCAGGCUUAGGUGGCGCGAUAGCGCCAACGUCCUUAACGUCCAAUGCAUCCCACCACAUGAUGAUGCCUGAAGAGCCUUGGUUUUUUG | -1.73
19 | GACCAAUCUGCCCUCAGAGCUCGAGAACAUCUACGGAUGCAGAGGAGGCAGGCUUCGGUGGCGCGAUAGCGCCAACGUCCUCAACCUCGAAUGCAUCCCACCUCAUGAUGAAUCCUGAAGAGCCUUGGUUUUUUG | -5.8
20 | GACCACUCUGCCCUCAGAGCUCGAGAACAUCUUCGGAUGCAGAGGAGGCAGGCUUCGGUGGCGCGAUAGCGCCAACGUCCUCAACCUCCAAUGCGUCCCACUACAUGAUGAUGCCUGAAGAGCGUUGGUUUUUUG | -0.561
21 | GACCAAUCUGCCCUCAGAGCUCGAGAACAUCUUCGGAUGCAGAGGAGGCAGGCUUCGGUGGCGCGAUAGCGCCAACGCCCUCAACCUCCAAUGCAUCCCACCAAAUGAUGAUGCCUGAAGAGCCUUGGUUUUUUG | -1.61

Row | Variant | polymerase ribozyme fitness (log ratio)
22 | GACCAAUCUGCCCUCAGAGCUUGAGAACAUCUUCGGAUGCAGAGGAGGCAGGCUUCGGUGGCUCGAUAGCGCCAACGUCCUUAACCUCCAAUGCAUCCCACCACAUGAUGAUGCCUGAAGAGCGUAGGUUUUUUG | -3.87
23 | GACCAAUCUGCCCUCAGAGCUCGAGAACAUCUUCGGAUGCAGAGGAGGCAGGCUUCGGUGGCGCGAUAGCGCCAACGUCCUCAACCUCCAAUGCAUCCAACCACAUGAUGAUGCCUGAAGAGUCUUGGUUUUUUG | -6.27
24 | GACUAAUGUGCCAUCAGAGCGCGAGAACAUCUUCGGAUGCAGAGGAGGCAGGCUUCGGUGGCGCGAUAGUGCCAACGUCCUCAACCUCCAAUGCAUCCCACCACAUGAUGAUGCCUGAACAGCCUUGGUUUCUUG | -0.598
25 | GACCAAUCUGCCCUCAGAGCUCGAGAACAUCUUCGGAUGCAGAGGAGGCAGGCUUCGAUGGCGCGAUAGCGUCAACGUCCUCAACCUCCAAUGCAUCCCACCACAUGAUGAUGCCUGAAGAGCCUUGGUUUUUUG | 0.786
26 | GACCAAUCUGCCCUCAGAGCUCGAGAACAUCUUCGGAUGCAGAGGAGGCGGGCUUCGGUGGCGCGAUAACGCCAACGUCCUCAACCUCCCAUGCAUCCCACCACAUGAUGAUGCCUGAAGAGCCUUGGUUUUUUG | -6.86
27 | GACCAAUCUGCCCUCAGAGCUCGAGAACCUCUUCGGAUGCAGAGGAGGCAGGCUUCGGUGACGCGAUAGCGCCAACGUCCUCAACCUGCAAUGCAUCCCACCACAUGAUGAUGGCUGAAGAGCCUUGGUUUUUUG | -6.84
28 | GACCAAUCUGCCCUCAGAGCCCGAGAACAUCUUCGGAUGCAGAGGAGGCAGGCUUCGGUGGCGCGAUAGCGGCAACGUCCUCAAACUCCAAUGCAUCCCACCACAUGAUGAUGCCCGAAGAGCCUUGGUUUUUUG | -3.42
29 | GACCAAUCUGCCCUCAGAGCUCGAGAACAUCUUCGGAUGCAGAGGAGGCAGGCUUCGGUGGCGCGAUAGCGCCAACGUCCUCAACUUCCAAUGCAUCCCACCACAUGAUGAUGCCCGAAGAGCCUUGGUUUUUUG | -0.139
30 | GACCAAUCUGCCCUCAGAGCUCGAGAACAUCUUCGGAUGCAGAGGAGGGAGGCUUCGGUGGCGCGAUAGCGCCAACGUCCUCAUCCUCCAAUGCAUCCCACCACAUGAUCAUGCCUGAAGAGCCUUGGUUUUUUG | -5.43
31 | GACCAAUCUGCCCUCAGAGCUCGAGAACAUCUUCGGAUGCAGAGGAGGUAGGCUUCGGUGGCGCGAUAGCGCCAACGUCCUCAACCUCCAAUGCAUCCCACCACAUGAUCAUGCCUGAAGAGCCUUGGUUUUUUG | -5.17
32 | GACCAAUCUGCCCUCAGAGCUCGAGAACAUCUUCGGAUGCAGAGGAGGCCGGCUUCGGUGGCGCGAUAGCGCCAACGUCCUAAACCUCCAAUGCAUCCCACCACAUGAUGAUGCCUGAAGAGCCUUGGUUUUUUG | -0.499
33 | GACCAAUCUGCCCUCAGAGCUCGAGAACAUCUUCGGAUGCAGCGGAGGCAGGCUUCGGUGGCGCGAUAGGGCCAACGUCCUCAACCUCCAAUGCAUCCCACCACAUGAUGUUGCCUGAAGAGCCUUGGUUUUUUG | -5.68
34 | GACCAAUCUGCCCUCAGAGCUCGAGAACAUCUUCGGAUGCAGAGGAGGCAGGCAUCGGUGGCGCGAUAGCGCCAACGUCCUCAACCUCCAAUGCAUCCCACCACUUGAUGAUGCCUGAAGAGCCUUGGUUUUUUG | -1.84
35 | GACCAAUCUGCCCUCAGAGCUCGAGAACAUCUUCGGAUGCAGAGGAGGCAGGCUUCGGUGGCGCGAUAGCGCCAACGUCCUCAACCUCCAAUGCAUCCCACCACAUGAUGAUACCUGAAGAGCCAUGGUUUUUUG | -1.24
36 | GACCAAUCUGCCCUCAGAGCUCGAGAACAUCUUCGGAUGCAGAGGAGGCAGGCUUCGGUGGCGCGAUAGCGCCAACGUCCUCAAGUUCCAAAGCAUCCCACCACAUGAUGAUGCCUGAAGAGCCUUGGUUUUUUG | -5.3
37 | GACCAAUCUGCCCUCAGAGCUCGAGAACAUCUUCGGAUGCAGAGGAGGCAGGCUUCGGUGACGCGAUAGCGCCAACGUCCUCAACCUCCAAUGCAUCCCACCACAUGAUGAUGCCUGAAGAGCCUUUGUUUUUCG | -0.718
38 | GACCAAUCUGCCCUCAGAGCUCGAGUACAUCUUCGGAUGCAGAGGAGGCAGGCUUCGGUGGCGCGAUAGCGCCAACGUCCUUAACCUCCAAUGCAUCCCACCACAUGAUGAUGCCUGAAGAGCCUUGGUUUUUUG | -3.73
39 | GACCAAUCUGCCCUGAGAGCUCGAGAACAUCUUCGGAUGCAGAGGAGGCAGGCUUCGGUGGCGCGAUAUCGCCAACGUCCUCAACCUCCAAUGCAUCCCACAACAUGAUGAUGCCUGAAGAGCCUUGGUUUUUUG | -1.71
40 | GACCAAUCUGCCCUCAGAGCUCGAGAACAUCUUCGGAUGCAGUGGAGACAGGCUUCGGUGGCGCGAUAGCGCCAACGUCCUCAACCUCCAAUGCAUCCCACCACAUGAUGAUGCCUGAAGAGCCUUGGUUUUUUG | -1.56
41 | GACCAAUCUGCCCUCAGAGCUCGAGAACAUCUUCGGAUGCAGAGGAGGGAGGCUUCGGUGGCGCGAUAGCGCCAACGUCCUCAACCUCCAAUGCAUCCCACCACAUGAUGAUGCCUGAAGAUCGUUGGUUUUUUG | -1.12
42 | GACCAAUCUGCCCUCAGAGCUCGAGAACAUCUUCGGAUGCAGAGGAGGCAGGCUUCGGUGGCGCGAUAGCGCGAACGUCCUCAACCUCGAAUGCAUCCCACCACAUGAUGAUGCCUGAAGAGCCUUGGUUAUUUG | -2.56
